Molecular target: T1, human prolactin receptor (PRLR), full length on cells (human) (UniProt P16471)
T1 sequence: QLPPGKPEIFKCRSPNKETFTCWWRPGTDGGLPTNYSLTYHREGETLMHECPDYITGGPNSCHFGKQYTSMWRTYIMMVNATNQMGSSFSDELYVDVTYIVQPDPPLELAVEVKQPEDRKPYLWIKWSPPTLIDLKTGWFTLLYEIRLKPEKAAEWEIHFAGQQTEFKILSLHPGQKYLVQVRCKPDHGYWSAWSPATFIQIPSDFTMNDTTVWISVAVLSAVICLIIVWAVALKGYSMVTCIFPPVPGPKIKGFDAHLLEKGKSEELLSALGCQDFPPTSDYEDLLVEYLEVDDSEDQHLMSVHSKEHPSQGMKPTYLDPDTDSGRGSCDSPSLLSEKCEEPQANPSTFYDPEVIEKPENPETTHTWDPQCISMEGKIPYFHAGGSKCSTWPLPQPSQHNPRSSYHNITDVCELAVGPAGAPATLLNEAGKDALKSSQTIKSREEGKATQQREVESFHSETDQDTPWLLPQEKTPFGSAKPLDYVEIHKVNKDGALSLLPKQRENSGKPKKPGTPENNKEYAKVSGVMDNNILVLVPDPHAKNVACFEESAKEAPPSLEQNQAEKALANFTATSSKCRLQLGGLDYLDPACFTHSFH
Assay: flow cytometry on CHO-K1 cells expressing human PRLR (clone 1G5)

mAb 1167, control murine anti-PRLR monoclonal antibody (R&D Systems, catalog #MAB1167)
MFI: 33.8
